Data: paper PMC11264237 (Archives of biochemistry and biophysics, 2024)
Each block holds one binder with its values, some of them ahead of it.

Biological target: T1, GST fused to the ATP8A1 tail (amino acids 1049-1163) (human, UniProt Q9Y2Q0 1049-1163)
T1 sequence (looked up): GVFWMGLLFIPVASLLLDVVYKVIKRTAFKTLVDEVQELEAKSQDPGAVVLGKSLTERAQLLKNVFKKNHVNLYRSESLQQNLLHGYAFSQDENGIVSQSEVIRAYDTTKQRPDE
Assay: pull-down

- % of total input bound to the beads: 18.5 % of total input
B1: BIG2 (natural protein, human (endogenous in HeLa), UniProt Q9Y6D5 1-1785, looked up)
chain: MQESQTKSMFVSRALEKILADKEVKRPQHSQLRRACQVALDEIKAEIEKQRLGTAAPPKANFIEADKYFLPFELACQSKSPRVVSTSLDCLQKLIAYGHITGNAPDSGAPGKRLIDRIVETICSCFQGPQTDEGVQLQIIKALLTAVTSPHIEIHEGTILQTVRTCYNIYLASKNLINQTTAKATLTQMLNVIFTRMENQVLQEARELEKPIQSKPQSPVIQAAAVSPKFVRLKHSQAQSKPTTPEKTDLTNGEHARSDSGKVSTENGDAPRERGSSLSGTDDGAQEVVKDILEDVVTSAIKEAAEKHGLTEPERVLGELECQECAIPPGVDENSQTNGIADDRQSLSSADNLESDAQGHQVAARFSHVLQKDAFLVFRSLCKLSMKPLGEGPPDPKSHELRSKVVSLQLLLSVLQNAGPVFRTHEMFINAIKQYLCVALSKNGVSSVPDVFELSLAIFLTLLSNFKMHLKMQIEVFFKEIFLNILETSTSSFEHRWMVIQTLTRICADAQCVVDIYVNYDCDLNAANIFERLVNDLSKIAQGRSGHELGMTPLQELSLRKKGLECLVSILKCMVEWSKDLYVNPNHQTSLGQERLTDQEIGDGKGLDMARRCSVTSMESTVSSGTQTTVQDDPEQFEVIKQQKEIIEHGIELFNKKPKRGIQFLQEQGMLGTSVEDIAQFLHQEERLDSTQVGDFLGDSARFNKEVMYAYVDQLDFCEKEFVSALRTFLEGFRLPGEAQKIDRLMEKFAARYIECNQGQTLFASADTAYVLAYSIIMLTTDLHSPQVKNKMTKEQYIKMNRGINDSKDLPEEYLSSIYEEIEGKKIAMKETKELTIATKSTKQNVASEKQRRLLYNLEMEQMAKTAKALMEAVSHAKAPFTSATHLDHVRPMFKLVWTPLLAAYSIGLQNCDDTEVASLCLEGIRCAIRIACIFGMQLERDAYVQALARFSLLTASSSITEMKQKNIDTIKTLITVAHTDGNYLGNSWHEILKCISQLELAQLIGTGVKTRYLSGSGREREGSLKGHTLAGEEFMGLGLGNLVSGGVDKRQMASFQESVGETSSQSVVVAVDRIFTGSTRLDGNAIVDFVRWLCAVSMDELASPHHPRMFSLQKIVEISYYNMNRIRLQWSRIWHVIGDHFNKVGCNPNEDVAIFAVDSLRQLSMKFLEKGELANFRFQKDFLRPFEHIMKKNRSPTIRDMAIRCIAQMVNSQAANIRSGWKNIFAVFHQAASDHDGNIVELAFQTTCHIVTTIFQHHFPAAIDSFQDAVKCLSEFACNAAFPDTSMEAIRLIRFCGKYVSERPRVLQEYTSDDMNVAPGDRVWVRGWFPILFELSCIINRCKLDVRTRGLTVMFEIMKSYGHTFEKHWWQDLFRIVFRIFDNMKLPEQLSEKSEWMTTTCNHALYAICDVFTQFYEALNEVLLSDVFAQLQWCVKQDNEQLARSGTNCLENLVISNGEKFSPEVWDETCNCMLDIFKTTIPHVLLTWRPVGMEEDSSEKHLDVDLDRQSLSSIDKNPSERGQSQLSNPTDDSWKGRPYANQKLFASLLIKCVVQLELIQTIDNIVFYPATSKKEDAEHMVAAQQDTLDADIHIETEDQGMYKYMSSQHLFKLLDCLQESHSFSKAFNSNYEQRTVLWRAGFKGKSKPNLLKQETSSLACCLRILFRMYVDENRRDSWEEIQQRLLTVCSEALAYFITVNSESHREAWTSLLLLLLTKTLKINDEKFKAHASMYYPYLCEIMQFDLIPELRAVLRKFFLRIGVVYKIWIPEEPSQVPAALSPVW

- % of total input bound to the beads: 24 % of total input
B2: BIG1 (natural protein, human (endogenous in HeLa), UniProt Q9Y6D6 1-1849, looked up)
chain: MYEGKKTKNMFLTRALEKILADKEVKKAHHSQLRKACEVALEEIKAETEKQSPPHGEAKAGSSTLPPVKSKTNFIEADKYFLPFELACQSKCPRIVSTSLDCLQKLIAYGHLTGNAPDSTTPGKKLIDRIIETICGCFQGPQTDEGVQLQIIKALLTAVTSQHIEIHEGTVLQAVRTCYNIYLASKNLINQTTAKATLTQMLNVIFARMENQALQEAKQMEKERHRQHHHLLQSPVSHHEPESPQLRYLPPQTVDHISQEHEGDLDLHTNDVDKSLQDDTEPENGSDISSAENEQTEADQATAAETLSKNEVLYDGENHDCEEKPQDIVQNIVEEMVNIVVGDMGEGTTINASADGNIGTIEDGSDSENIQANGIPGTPISVAYTPSLPDDRLSVSSNDTQESGNSSGPSPGAKFSHILQKDAFLVFRSLCKLSMKPLSDGPPDPKSHELRSKILSLQLLLSILQNAGPIFRTNEMFINAIKQYLCVALSKNGVSSVPEVFELSLSIFLTLLSNFKTHLKMQIEVFFKEIFLYILETSTSSFDHKWMVIQTLTRICADAQSVVDIYVNYDCDLNAANIFERLVNDLSKIAQGRGSQELGMSNVQELSLRKKGLECLVSILKCMVEWSKDQYVNPNSQTTLGQEKPSEQEMSEIKHPETINRYGSLNSLESTSSSGIGSYSTQMSGTDNPEQFEVLKQQKEIIEQGIDLFNKKPKRGIQYLQEQGMLGTTPEDIAQFLHQEERLDSTQVGEFLGDNDKFNKEVMYAYVDQHDFSGKDFVSALRMFLEGFRLPGEAQKIDRLMEKFAARYLECNQGQTLFASADTAYVLAYSIIMLTTDLHSPQVKNKMTKEQYIKMNRGINDSKDLPEEYLSAIYNEIAGKKISMKETKELTIPTKSSKQNVASEKQRRLLYNLEMEQMAKTAKALMEAVSHVQAPFTSATHLEHVRPMFKLAWTPFLAAFSVGLQDCDDTEVASLCLEGIRCAIRIACIFSIQLERDAYVQALARFTLLTVSSGITEMKQKNIDTIKTLITVAHTDGNYLGNSWHEILKCISQLELAQLIGTGVKPRYISGTVRGREGSLTGTKDQAPDEFVGLGLVGGNVDWKQIASIQESIGETSSQSVVVAVDRIFTGSTRLDGNAIVDFVRWLCAVSMDELLSTTHPRMFSLQKIVEISYYNMGRIRLQWSRIWEVIGDHFNKVGCNPNEDVAIFAVDSLRQLSMKFLEKGELANFRFQKDFLRPFEHIMKRNRSPTIRDMVVRCIAQMVNSQAANIRSGWKNIFSVFHLAASDQDESIVELAFQTTGHIVTLVFEKHFPATIDSFQDAVKCLSEFACNAAFPDTSMEAIRLIRHCAKYVSDRPQAFKEYTSDDMNVAPEDRVWVRGWFPILFELSCIINRCKLDVRTRGLTVMFEIMKTYGHTYEKHWWQDLFRIVFRIFDNMKLPEQQTEKAEWMTTTCNHALYAICDVFTQYLEVLSDVLLDDIFAQLYWCVQQDNEQLARSGTNCLENVVILNGEKFTLEIWDKTCNCTLDIFKTTIPHALLTWRPNSGETAPPPPSPVSEKPLDTISQKSVDIHDSIQPRSVDNRPQAPLVSASAVNEEVSKIKSTAKFPEQKLFAALLIKCVVQLELIQTIDNIVFFPATSKKEDAENLAAAQRDAVDFDVRVDTQDQGMYRFLTSQQLFKLLDCLLESHRFAKAFNSNNEQRTALWKAGFKGKSKPNLLKQETSSLACGLRILFRMYMDESRVSAWEEVQQRLLNVCSEALSYFLTLTSESHREAWTNLLLLFLTKVLKISDNRFKAHASFYYPLLCEIMQFDLIPELRAVLRRFFLRIGVVFQISQPPEQELGINKQ
